# B1: improved Light Inducible Dimer (iLID) (designed binder)
# chain: MRGSHHHHHHGSLATTLERIEKNFVITDPRLPDNPIIFASDSFLQLTEYSREEILGRNCRFLQGPETDRATVRKIRDAIDNQTEVTVQLINYTKSGKKFWNVFHLQPMRDYKGDVQYFIGVQLDGTERLHGAAEREAVCLIKKTAFQIAEAANDENYF
# modifications: flavin mononucleotide (FMN) cofactor; in the lit state a metastable covalent bond of FMN with Cys450
# Experiments:
# [1] = target: T1, SspB_milli (UniProt P45206 1-150, A58V); test: fluorescence polarisation
# [2] = target: T1, SspB_milli; test: fluorescence polarisation; remark: listed apart in the source
binder,measurement,setting,value
B1,fold weaker than the lit state,[1],≥ 25 fold
same,Kd,[2],56 ± 6 µM

# Reference: paper PMC5332220 (Biochemistry, 2016)
